Measurements reported in paper PMC12541621.

Target: Recombinant Human HER2 ECD (human) (UniProt P04626)
Test: SPR

Kd: 0.107 nM
Substance: ABY-025 (designed binder)
